Assay results as given in publication PMC9117268, “HDLBP binds ER-targeted mRNAs by multivalent interactions to promote protein synthesis of transmembrane and secreted proteins”.

Experiments:
[1] = target: T1, HDLBP full-length (FL), Vigilin (Homo sapiens, UniProt Q00341 1-1268); experiment: fluorescence anisotropy; 20 mM Tris pH 7.5, 60 mM KCl, 1 mM EDTA, 10% glycerol, 1 ng/ul tRNA, 1 ng/ul heparin, 0.4 U/ul RNasin, 200 ng/ul BSA; 10 nM RNA probe; 20 min on ice; settings: protein: recombinant; purification section says GST removed by TEV; label: 5' fluorescein
[2] = target: T1, HDLBP full-length (FL), Vigilin; experiment: as above; settings: protein: recombinant; purification section says GST removed by TEV; label: 5' fluorescein; remark: listed apart in the source

T1 sequence (Q00341 whole entry): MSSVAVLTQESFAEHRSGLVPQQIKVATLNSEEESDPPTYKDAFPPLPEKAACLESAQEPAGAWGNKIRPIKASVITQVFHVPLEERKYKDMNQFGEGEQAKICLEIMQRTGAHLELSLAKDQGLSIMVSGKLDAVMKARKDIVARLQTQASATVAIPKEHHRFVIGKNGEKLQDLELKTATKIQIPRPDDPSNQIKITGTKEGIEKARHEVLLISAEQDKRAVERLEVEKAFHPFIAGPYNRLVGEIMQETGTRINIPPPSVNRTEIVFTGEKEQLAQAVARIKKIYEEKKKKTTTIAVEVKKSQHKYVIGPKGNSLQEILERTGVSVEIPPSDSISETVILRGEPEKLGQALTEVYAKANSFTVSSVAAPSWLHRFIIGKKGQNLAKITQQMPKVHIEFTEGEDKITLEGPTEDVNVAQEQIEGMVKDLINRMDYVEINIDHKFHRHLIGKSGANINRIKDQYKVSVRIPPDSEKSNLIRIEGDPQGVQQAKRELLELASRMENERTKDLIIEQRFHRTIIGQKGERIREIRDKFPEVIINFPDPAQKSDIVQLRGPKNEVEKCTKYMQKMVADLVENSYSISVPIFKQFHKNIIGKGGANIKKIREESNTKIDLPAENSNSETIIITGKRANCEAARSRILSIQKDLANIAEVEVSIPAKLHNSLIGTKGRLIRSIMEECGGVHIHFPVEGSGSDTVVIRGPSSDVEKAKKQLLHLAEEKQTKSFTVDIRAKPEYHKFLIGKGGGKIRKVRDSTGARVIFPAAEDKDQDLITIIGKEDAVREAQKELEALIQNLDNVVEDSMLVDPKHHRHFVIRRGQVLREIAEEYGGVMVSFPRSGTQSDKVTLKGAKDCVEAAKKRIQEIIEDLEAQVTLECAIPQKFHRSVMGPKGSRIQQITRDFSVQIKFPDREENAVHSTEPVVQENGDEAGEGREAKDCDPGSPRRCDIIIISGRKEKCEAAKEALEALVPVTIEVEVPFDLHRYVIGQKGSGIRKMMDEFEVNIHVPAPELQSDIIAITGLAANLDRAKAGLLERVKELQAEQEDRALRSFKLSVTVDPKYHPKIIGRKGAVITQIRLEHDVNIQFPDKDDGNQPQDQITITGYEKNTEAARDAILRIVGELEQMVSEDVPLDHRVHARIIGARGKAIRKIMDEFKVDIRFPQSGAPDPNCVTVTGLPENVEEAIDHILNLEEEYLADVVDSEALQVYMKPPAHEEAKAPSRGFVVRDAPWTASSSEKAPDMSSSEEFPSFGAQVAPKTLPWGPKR

## CAACAACAACAACAACAACAACAACAACAACAA (ssRNA) [CAA_oligomer]
[1]
  binding signal: ~10 fold lower affinity than CCU/CUU oligomers

## AUUCCCUUCCUUCAAUCACACUCAGUUUCCACC (ssRNA) [TFRC_1]
[2]
  binding result: binds

## CACAGCUCUCCUAUUGAAACUUGCCCAGAUGUU (ssRNA) [TFRC_2]
[2]
  binding result: binds
